Experimental findings from paper PMC8567202, “Phosphoinositide-binding activity of Smad2 is essential for its function in TGF-β signaling” (The Journal of Biological Chemistry, 2021) are described below.

Like-named read-outs stand apart in the source and are kept apart here.

In assay [1] the test system is TβRI GS region peptide (F-Ahx-YDMTTpSGpSGpSGLPLL). The experiment in a line: Fluorescence anisotropy binding to TβRI GS peptide. An excerpt:
(§1) However, this tentative assignment has been confirmed neither by a high-resolution structure of the Smad2-TβRI complex nor by a quantitative and systematic binding study, leaving uncertainty about the exact nature of the Smad2-TβRI-binding interface. Since the L3 loop is a part of the newly identified PI(4,5)P2-binding site, we checked if these PI(4,5)P2-binding residues are also involved in the Smad2-TβRI interaction using two fluorescein-labeled synthetic peptides derived from the GS region (i.e., GS peptide: fluorescein-aminohexanoyl (F-Ahx)-YDMTTpSGpSGpSGLPLL) and the L45 loop (i.e., L45 peptide: F-Ahx-ADNKDNGT), respectively. In particular, the GS peptide represents the GS motif triply phosphorylated by TβRII. We then measured binding to Smad2 WT and mutants to these peptides by fluorescence anisotropy according to our established protocol ([21]). […] We thus primarily used the GS peptide to assess the effects of mutations on the Smad2-TβRI interaction. […] They also yielded distinct structural variants for further functional studies. Specifically, W422A and Y426A could serve as specific PI(4,5)P2 binding-compromised mutants and K420A as a predominantly TβRI binding-compromised mutant. R427A/R428A could also serve as a PI(4,5)P2 and TβRI binding-compromised mutant, whereas E425K as a PI(4,5)P2 and TβRI binding-enhanced mutant.
(§2) Figure 3 Affinity of Smad2 WT and mutants for TβRI-derived peptides determined by fluorescence anisotropy.A, binding of Smad2 WT (black), W422A (red), Y420A (cyan), R427A/R428A (green), K420A (blue), and E425K (orange) to the GS peptide (F-Ahx-YDMTTpSGpSGpSGLPLL). […] B, binding of Smad2 WT (black), W422A (red), Y420A (cyan), R427A/R428A (green), K420A (blue), and E425K (orange) to the L45 loop peptide (F-Ahx-DNKDNGT). C, effects of 50 μM POPC/POPS/PI(4,5)P2 (77:20:3) LUVs on binding of Smad2 to the GS peptide. The presence of vesicles (orange) raises the Kd value from 20 ± 6 to 60 ± 7 nM. The peptide concentration was fixed at 2.5 nM, and the Smad2 concentration was varied from 0 to 150 μM. The experimentally observed anisotropy (A) values were normalized (Anorm) using the equation: Anorm = (A − Amin)/(Amax − Amin) where Amax and Amin are maximal and minimal A values, respectively, for each measurement. The plots of Anormversus [Smad2] were analyzed by the nonlinear least-squares analysis using the equation: Anorm = 1/(1 + Kd/[Smad2]).
(§3) The fluorescein-6-aminohexanoyl (F-Ahx)-labeled TβRI GS region peptide (F-Ahx-YDMTTpSGpSGpSGLPLL) was dissolved in dimethyl sulfoxide to yield 1 mg/ml stock solution, F-Ahx-labeled TβRI L45 loop region peptide (F-Ahx-ADNKDNGT) was dissolved in a 3:1 mixture of water and acetonitrile to yield 2.5 mg/ml stock solution. Both peptide solutions were diluted to 1 to 10 μM with 20 mM Tris buffer, pH 7.9, containing 160 mM NaCl for binding studies. In total, 300 μl of the Smad2 (WT or mutant) solution (0–250 μM) was added to a series of 1.5 ml microcentrifuge containing the peptide solution (2.5 μM). After 10-min incubation in the dark, the mixture was transferred to a quartz cuvette with 2-mm path length and fluorescence anisotropy (r) was measured with excitation and emission wavelengths set at 485 and 535 nm, respectively, using Horiba Flurolog-3 spectrofluorometer. Since Po >> Pepo under our conditions, the Kd for the Smad2-peptide binding was determined by the nonlinear least-squares analysis of the binding isotherm using the Equation 1:(1) Pepbound/Pep0=Δr/Δrmax=1/1+kd/P0 where Pepbound, Pep0, and P0 indicate the concentration of bound peptide, total peptide, and total Smad2, respectively, and Δr and Δrmax are the anisotropy change for each P0 and the maximal Δr, respectively.

Assay [2] addresses TβRI L45 loop region peptide (F-Ahx-ADNKDNGT). Description: Fluorescence anisotropy binding to TβRI L45 peptide. The following applies: 20 mM Tris, pH 7.9, 160 mM NaCl, 10-min incubation, average ±S.D., n = 3.
Text: as §1, §2, §3

B1: Smad2 WT: bacterially expressed full-length Smad2 wild-type (protein)
chain: MSSILPFTPPVVKRLLGWKKSAGGSGGAGGGEQNGQEEKWCEKAVKSLVKKLKKTGRLDELEKAITTQNCNTKCVTIPSTCSEIWGLSTANTVDQWDTTGLYSFSEQTRSLDGRLQVSHRKGLPHVIYCRLWRWPDLHSHHELKAIENCEYAFNLKKDEVCVNPYHYQRVETPVLPPVLVPRHTEILTELPPLDDYTHSIPENTNFPAGIEPQSNYIPETPPPGYISEDGETSDQQLNQSMDTGSPAELSPTTLSPVNHSLDLQPVTYSEPAFWCSIAYYELNQRVGETFHASQPSLTVDGFTDPSNSERFCLGLLSNVNRNATVEMTRRHIGRGVRLYYIGGEVFAECLSDSAIFVQSPNCNQRYGWHPATVCKIPPGCNLKIFNNQEFAALLAQSVNQGFEAVYQLTRMCTIRMSFVKGWGAEYRRQTVTSTPCWIELHLNGPLQWLDKVLTQMGSPSVRCSSMS
modifications: left off: His6, N-terminal, state not stated
notes: bacterially expressed full-length Smad2 wild-type
Regarding B1, the “effect of PI(4,5)P2 LUVs on binding to the GS peptide” value in assay [1] (50 μM POPC/POPS/PI(4,5)P2 (77:20:3) LUVs) is listed as “significantly interfered with binding of Smad2 to the GS peptide”. Also, the Kd in assay [1] (fluorescence anisotropy, 20 mM Tris, pH 7.9, 160 mM NaCl, 10-min incubation, average ±S.D., n = 3, read-out: Kd for peptide binding, GS peptide) was 20 ± 6 µM; in assay [1] (with 50 μM POPC/POPS/PI(4,5)P2 (77:20:3) LUVs, fluorescence anisotropy, Smad2 0 to 150 μM, read-out: Kd, GS peptide, in the presence of vesicles) it was 0.06 ± 0.007 µM; in assay [1] (without LUVs, fluorescence anisotropy, Smad2 0 to 150 μM, read-out: Kd, GS peptide, without vesicles), 0.02 ± 0.006 µM; in assay [2], 66 ± 4 µM. Besides, the “binding to GS peptide relative to L45 peptide” value in assay [1] (fluorescence anisotropy, Kd comparison) came to 3.3 times.
